Laboratory results taken from publication PMC5694551, “Kir2.1-Nav1.5 Channel Complexes Are Differently Regulated than Kir2.1 and Nav1.5 Channels Alone” (Frontiers in Physiology, 2017).

Molecular target: T1, Nav1.5 channels of rat ventricular myocytes (rat (endogenous in ventricular myocytes), UniProt P15389 1-2019)
T1 construct: Nav1.5 sodium channel alpha subunit, endogenous at the membrane of Sprague-Dawley rat ventricular myocytes; source: endogenous, isolated rat ventricular myocytes (fixed, non-permeabilized)
T1 sequence (P15389 whole entry): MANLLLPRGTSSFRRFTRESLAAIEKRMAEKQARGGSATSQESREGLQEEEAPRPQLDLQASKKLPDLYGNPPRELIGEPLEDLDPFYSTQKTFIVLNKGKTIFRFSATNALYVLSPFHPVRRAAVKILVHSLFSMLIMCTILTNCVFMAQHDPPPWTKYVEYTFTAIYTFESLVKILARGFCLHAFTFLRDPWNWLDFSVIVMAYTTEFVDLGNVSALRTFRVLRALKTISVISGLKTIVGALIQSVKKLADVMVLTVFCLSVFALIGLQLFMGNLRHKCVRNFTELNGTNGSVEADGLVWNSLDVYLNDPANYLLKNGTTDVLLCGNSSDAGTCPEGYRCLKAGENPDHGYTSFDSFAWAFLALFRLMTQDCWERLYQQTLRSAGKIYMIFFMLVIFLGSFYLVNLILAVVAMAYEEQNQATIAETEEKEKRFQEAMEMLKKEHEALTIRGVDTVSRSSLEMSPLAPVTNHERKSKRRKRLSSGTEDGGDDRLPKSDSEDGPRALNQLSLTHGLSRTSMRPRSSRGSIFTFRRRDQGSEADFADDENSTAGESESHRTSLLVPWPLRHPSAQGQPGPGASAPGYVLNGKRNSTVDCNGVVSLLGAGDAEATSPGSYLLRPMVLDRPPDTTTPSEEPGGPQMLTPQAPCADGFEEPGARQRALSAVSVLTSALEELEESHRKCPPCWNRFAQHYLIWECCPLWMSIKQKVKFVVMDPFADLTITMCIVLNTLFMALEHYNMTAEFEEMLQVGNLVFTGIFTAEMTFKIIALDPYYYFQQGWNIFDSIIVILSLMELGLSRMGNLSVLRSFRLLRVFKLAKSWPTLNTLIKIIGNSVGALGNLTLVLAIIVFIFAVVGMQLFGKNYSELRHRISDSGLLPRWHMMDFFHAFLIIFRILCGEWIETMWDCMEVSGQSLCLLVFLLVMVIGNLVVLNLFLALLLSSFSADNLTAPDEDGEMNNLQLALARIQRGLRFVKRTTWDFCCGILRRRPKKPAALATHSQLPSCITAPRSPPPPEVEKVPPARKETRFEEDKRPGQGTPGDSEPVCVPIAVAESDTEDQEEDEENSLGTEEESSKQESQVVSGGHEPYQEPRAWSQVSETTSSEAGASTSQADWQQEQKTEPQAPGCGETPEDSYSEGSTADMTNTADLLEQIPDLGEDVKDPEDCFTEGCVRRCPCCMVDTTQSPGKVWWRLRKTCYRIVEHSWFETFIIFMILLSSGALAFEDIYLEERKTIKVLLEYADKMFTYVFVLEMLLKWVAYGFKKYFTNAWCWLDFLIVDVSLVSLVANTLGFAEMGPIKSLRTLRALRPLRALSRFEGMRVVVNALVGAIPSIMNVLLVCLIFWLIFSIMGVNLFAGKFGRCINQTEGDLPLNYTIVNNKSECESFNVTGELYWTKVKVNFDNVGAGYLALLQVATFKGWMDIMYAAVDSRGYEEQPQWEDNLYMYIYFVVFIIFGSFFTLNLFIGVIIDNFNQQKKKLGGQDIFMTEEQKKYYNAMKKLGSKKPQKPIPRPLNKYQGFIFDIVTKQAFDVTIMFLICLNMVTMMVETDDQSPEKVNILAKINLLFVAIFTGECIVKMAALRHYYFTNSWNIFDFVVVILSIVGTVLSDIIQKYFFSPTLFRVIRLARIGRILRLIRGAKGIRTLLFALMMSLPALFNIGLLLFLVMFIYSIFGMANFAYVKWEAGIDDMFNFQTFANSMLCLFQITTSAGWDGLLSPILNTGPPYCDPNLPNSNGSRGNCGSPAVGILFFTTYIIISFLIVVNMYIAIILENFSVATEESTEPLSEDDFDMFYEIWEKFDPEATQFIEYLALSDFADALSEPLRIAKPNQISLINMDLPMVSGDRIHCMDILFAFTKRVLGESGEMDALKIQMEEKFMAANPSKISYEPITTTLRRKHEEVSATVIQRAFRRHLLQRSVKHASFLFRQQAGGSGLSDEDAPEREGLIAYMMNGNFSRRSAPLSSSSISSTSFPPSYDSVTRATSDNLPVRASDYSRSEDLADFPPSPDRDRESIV
Test: proximity ligation; Duolink PLA in fixed, non-permeabilized rat ventricular myocytes; primary antibodies against extracellular domains of Nav1.5 and Kir2.1; buffers without detergents; confocal microscopy; negative control without primary antibodies
Settings: partners not purified

B1: Kir2.1 channels of rat ventricular myocytes (natural protein, rat (endogenous in ventricular myocytes), UniProt Q64273 1-427, looked up)
chain: MGSVRTNRYSIVSSEEDGMKLATMAVANGFGNGKSKVHTRQQCRSRFVKKDGHCNVQFINVGEKGQRYLADIFTTCVDIRWRWMLVIFCLAFVLSWLFFGCVFWLIALLHGDLDASKESKACVSEVNSFTAAFLFSIETQTTIGYGFRCVTDECPIAVFMVVFQSIVGCIIDAFIIGAVMAKMAKPKKRNETLVFSHNAVIAMRDGKLCLMWRVGNLRKSHLVEAHVRAQLLKSRITSEGEYIPLDQIDINVGFDSGIDRIFLVSPITIVHEIDEDSPLYDLSKQDIDNADFEIVVILEGMVEATAMTTQCRSSYLANEILWGHRYEPVLFEEKHCYKVDYSRFHKTYEVPNTPLCSARDLAEKKYILSNANSFCYENEVALTSKEEEDSENGVPESTSTDSPPGIDLHNQASVPLEPRPLRRESEI
notes: Kir2.1 inward rectifier K+ channel, endogenous at the membrane of Sprague-Dawley rat ventricular myocytes; source: endogenous, isolated rat ventricular myocytes (fixed, non-permeabilized)
  fold increase of the PLA fluorescence signal over the negative control (no primary antibodies): ~6.5 fold
